Measured values from article PMC7432852, “2-Ketoglutarate-Generated In Vitro Enzymatic Biosystem Facilitates Fe(II)/2-Ketoglutarate-Dependent Dioxygenase-Mediated C–H Bond Oxidation for (2S,3R,4S)-4-Hydroxyisoleucine Synthesis” (International Journal of Molecular Sciences, 2020).
One block for each molecule: values may come before it.

Tests used:
[1] = system: LGOX (L-glutamate oxidase); details: 50 mM Tris-HCl pH 7.0, 30 °C; L-Glu 0.5–20 mM
Description: initial rate of 2-KG formation by HPLC, catalase present, Michaelis-Menten fit on LGOX (L-glutamate oxidase)

[2] = substrate: CC[C@H](C)[C@H](N)C(=O)O; assay: initial rate of 4-HIL formation by HPLC, Michaelis-Menten fit; format: biochemical, Bacillus thuringiensis; details: 50 mM Tris-HCl pH 7.0, 30 °C, co-substrate 2-KG, FeSO4, L-ascorbic acid, L-Ile 0.5–20 mM
Description: (§1) initial rate of 4-HIL formation by HPLC, Michaelis-Menten fit on IDO (L-Ile dioxygenase)

[3] = substrate: O=C(O)CCC(=O)C(=O)O; assay: as above; format: biochemical, Bacillus thuringiensis; details: 50 mM Tris-HCl pH 7.0, 30 °C, co-substrate L-Ile, FeSO4, L-ascorbic acid, 2-KG 1–40 mM
Description: as §1

Km [1]: 2.65 ± 0.11 mM
Molecule: N[C@@H](CCC(=O)O)C(=O)O [L-Glu]

B1: IDO (L-Ile dioxygenase) (Bacillus thuringiensis) (protein)
chain: MKMSGFSIEEKVHEFESKGFLEISNEIFLQEEENHSLLTQAQLDYYNLEDDAYGECRARSYSRYIKYVDSPDYILDNSNDYFQSKEYNYDDGGKVRQFNSINDSFLCNPLIQNIVRFDTEFAFKTNIIDKSKDLIIGLHQVRYKATKERPSFSSPIWLHKDDEPVVFLHLMNLSNTAIGGDNLIANSPREINQFISLKEPLETLVFGQKVFHAVTPLGTECSTEAFRDILLVTFSYKETK
Km [2]: 6.34 ± 0.12 mM
Vmax [2]: 8.99 µmol/min/mg
kcat [2]: 4.18 ± 0.08 s⁻¹
Km [3]: 15.12 ± 0.08 mM
Vmax [3]: 19.8 µmol/min/mg
kcat [3]: 9.18 ± 0.07 s⁻¹
